Data set [1] concerns the target T1, FPRL1 receptor (Homo sapiens, UniProt P25090).
T1 construct: expressed in transfected cells; host or cells: RBL-2H3 (rat basophilic leukemia) cells over-expressing FPRL1, kept under G418 selection
T1 sequence (P25090 1-351): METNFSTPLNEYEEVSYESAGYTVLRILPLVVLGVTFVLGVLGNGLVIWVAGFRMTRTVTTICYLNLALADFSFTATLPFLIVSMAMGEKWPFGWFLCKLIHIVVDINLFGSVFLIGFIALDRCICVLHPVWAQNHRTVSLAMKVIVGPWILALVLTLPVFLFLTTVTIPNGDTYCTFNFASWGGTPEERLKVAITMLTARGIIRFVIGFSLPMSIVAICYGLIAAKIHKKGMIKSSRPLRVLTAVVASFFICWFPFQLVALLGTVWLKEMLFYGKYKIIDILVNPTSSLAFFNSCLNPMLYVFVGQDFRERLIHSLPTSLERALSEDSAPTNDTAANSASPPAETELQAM
Put plainly: pERK level by Western blot in FPRL1 over-expressing RBL-2H3 cells after stimulation. It counts as cell-based. As for the experimental part: In order to investigate the effect of HA conjugation on the signal transduction activity of peptide, three kinds of samples were prepared, the raw peptide, conjugate of peptide with HA-AMEA, and conjugate of peptide with HA-AEMA after hyaluronidase treatment. In the conjugate samples, the number of peptide molecules per single HA derivative chain was 5, 8, and 23, respectively. Each sample of conjugate of peptide with HA-AEMA (0.4 mL, 1 mg/mL) was divided into two aliquots. One aliquot was mixed with 0.2 mL of hyaluronidase solution (400 units/mL) and the other was mixed with 0.2 mL of water. Then, the solutions were incubated at 37° C. overnight for the complete enzymatic degradation of HA. Three replicates were carried out for the following bioactivity tests measuring the intracellular level of pERK and calcium ion. […]
The prepared cells were aliquoted into 1×10^6 cells and stimulated with a control (no treatment), peptide (CWRYMVm, SEQ ID NO: 5), HA-AEMA, the mixture of peptide and HA-AEMA, and three kind of conjugate samples with and without hyaluronidase treatment. […] Protein concentrations in the lysates were determined by Bradford protein assay. […]
The data are expressed as means±S.D. from several separate experiments. […]

Data set [2] in a line: Dissolution of peptide in serum. It counts as physicochemical. Conditions: fetal bovine serum. As for the experimental part:
In order to investigate the effect of HA conjugation on the serum stability of peptide, raw peptide and three kinds of conjugate samples were dissolved in 0.5 mL of water and mixed with 0.5 mL of fetal bovine serum (FBS), respectively. In conjugates of peptide with HA derivative, the number of peptide molecules per single HA chain was 5, 19, and 33, respectively. […] Then, the solutions were incubated at 37° C. for 96 hours. The remaining amount of peptide was measured by GPC analysis after incubation for 12, 24, 48, 72, and 96 hours. Three replicates were carried out.

The target of data set [3] is T1, FPRL1 receptor. Put plainly: Co-treatment with antagonistic peptide, pERK Western blot in RBL-2H3/FPRL1 cells. It counts as cell-based. The settings on record: RBL-2H3/FPRL1 cells stimulated 5 min with CWRYMVm or HA-CWRYMVm conjugates (5, 8, 23). How it is done:
In order to investigate the effect of co-treatment with antagonistic peptide (C—WRWWWW (SEQ ID NO: 6), WRW4 (SEQ ID NO: 2) on the binding characteristics of the conjugates of peptide with HA-AEMA to FPRL1 receptor, the RBL-2H3/FPRL1 cells were stimulated with a control (no treatment), peptide (CWRYMVm, SEQ ID NO: 5), and three kinds of conjugate samples for 5 minutes in the presence and absence of C-WRWWWW (SEQ ID NO: 6), ([…], competitor for FPRL1 binding). The other procedures including electrophoresis and immunoblot analysis for Western blot was repeated in the same way as described above.

Where no end group is shown, it is not given here. [ ]: non-standard residue; d: D form.

For “Cys-Trp-Arg-Tyr-Met-Val-DMet (CWRYMV[dM]; also: conjugated with hyaluronic acid derivative) [CWRYMVm, Agonistic peptide for FPRL1 receptor; WRYMVm modified with cysteine]”, the “pERK level normalized to peptide alone (100%)” value in data set [1] (RBL-2H3/FPRL1 cells, 5 min stimulation, same peptide amount, without hyaluronidase treatment) is 100%. In addition, the “stimulation time of highest elevation of intracellular pERK level” value in data set [1] (stimulation up to 30 min, Western blot) turned out to be 5 min. For the same substance, the dissolution in serum entry in data set [2] is “not dissolved in serum completely”.
As for “Trp-Arg-Trp-Trp-Trp-Trp (WRWWWW; also: conjugated with hyaluronic acid derivative) [FPRL1 antagonist peptide]”, the “intracellular level of pERK on co-treatment with antagonistic peptide” value in data set [3] was “did not increase at all”.

The record behind these values is patent US20100210509A1, “LONG ACTING HYALURONIC ACID - PEPTIDE CONJUGATE” (Postech Academy-Industry Foundation, priority 2007, published 2010).
